Values quoted from earlier work as cited in article PMC9739371, “Deciphering the Binding of the Nuclear Localization Sequence of Myc Protein to the Nuclear Carrier Importin α3” (International Journal of Molecular Sciences, 2022).

Molecular target: NLS-Myc (GFP fusion) NLS (Homo sapiens) (UniProt P01106)
Sequence (P01106 whole entry, looked up, the tested form may be a part): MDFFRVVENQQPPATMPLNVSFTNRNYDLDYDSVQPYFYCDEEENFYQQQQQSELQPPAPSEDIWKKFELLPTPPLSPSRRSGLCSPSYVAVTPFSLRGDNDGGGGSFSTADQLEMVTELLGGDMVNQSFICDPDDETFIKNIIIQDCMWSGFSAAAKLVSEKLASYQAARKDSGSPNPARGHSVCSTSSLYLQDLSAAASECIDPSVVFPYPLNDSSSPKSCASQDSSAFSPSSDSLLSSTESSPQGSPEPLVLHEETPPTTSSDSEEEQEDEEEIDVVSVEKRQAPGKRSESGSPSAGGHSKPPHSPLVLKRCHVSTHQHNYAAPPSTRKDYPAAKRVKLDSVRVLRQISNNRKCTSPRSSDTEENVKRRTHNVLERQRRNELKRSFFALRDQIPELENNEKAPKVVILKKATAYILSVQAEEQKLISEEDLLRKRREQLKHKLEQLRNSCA

Chain of yeast ΔImpα ΔIBB (Q02821 1-68, stated change not applied): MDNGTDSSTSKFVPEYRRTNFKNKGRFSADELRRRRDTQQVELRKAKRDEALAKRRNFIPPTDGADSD

In the case of yeast ΔImpα ΔIBB (from UniProt Q02821), the Kd is listed as 6 nM.
